Test results published in US20200148733A1 (Pieris, published 2020).

T1: mouse IL-23 (mouse, UniProt Q9EQ14 22-196; P43432 23-335)
T1 construct: also called mIL-23
T1 sequence (looked up) 1: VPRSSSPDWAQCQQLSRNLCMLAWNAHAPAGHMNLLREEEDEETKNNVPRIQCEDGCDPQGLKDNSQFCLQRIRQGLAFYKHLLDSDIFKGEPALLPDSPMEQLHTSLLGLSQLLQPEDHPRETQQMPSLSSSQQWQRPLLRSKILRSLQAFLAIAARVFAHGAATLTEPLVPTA
T1 sequence (looked up) 2: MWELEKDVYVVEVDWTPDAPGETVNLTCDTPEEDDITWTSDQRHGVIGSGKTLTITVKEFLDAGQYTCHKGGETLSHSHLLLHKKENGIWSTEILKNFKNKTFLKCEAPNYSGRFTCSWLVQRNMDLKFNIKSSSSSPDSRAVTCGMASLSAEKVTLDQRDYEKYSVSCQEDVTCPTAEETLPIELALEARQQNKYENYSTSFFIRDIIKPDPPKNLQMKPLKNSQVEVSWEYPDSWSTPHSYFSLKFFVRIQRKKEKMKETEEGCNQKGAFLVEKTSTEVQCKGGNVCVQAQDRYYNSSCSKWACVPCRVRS

T2: human IL-23 (human, UniProt Q9NPF7 20-189; P29460 23-328)
T2 construct: Heterodimer of p19 and p40; in the proliferation assays CAT # HZ-1254, HumanZyme; also called hIL-23; hIL23
T2 sequence (looked up) 1: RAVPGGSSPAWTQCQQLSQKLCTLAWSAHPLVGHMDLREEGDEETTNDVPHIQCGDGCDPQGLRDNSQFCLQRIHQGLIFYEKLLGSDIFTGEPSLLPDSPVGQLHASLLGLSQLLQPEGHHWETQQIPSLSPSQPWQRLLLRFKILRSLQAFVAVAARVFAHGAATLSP
T2 sequence (looked up) 2: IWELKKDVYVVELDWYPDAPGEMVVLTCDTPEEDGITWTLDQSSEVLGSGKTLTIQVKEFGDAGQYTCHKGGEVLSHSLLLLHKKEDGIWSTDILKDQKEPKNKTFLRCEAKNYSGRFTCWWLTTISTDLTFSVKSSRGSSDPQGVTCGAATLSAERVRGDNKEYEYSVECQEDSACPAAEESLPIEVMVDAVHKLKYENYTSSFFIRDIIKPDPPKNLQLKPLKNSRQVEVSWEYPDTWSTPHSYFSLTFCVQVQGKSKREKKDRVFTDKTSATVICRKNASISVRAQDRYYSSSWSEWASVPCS

T3: human IL-12p40 (human, UniProt P29460 23-328)
T3 construct: also called hIL-12p40
T3 sequence (looked up): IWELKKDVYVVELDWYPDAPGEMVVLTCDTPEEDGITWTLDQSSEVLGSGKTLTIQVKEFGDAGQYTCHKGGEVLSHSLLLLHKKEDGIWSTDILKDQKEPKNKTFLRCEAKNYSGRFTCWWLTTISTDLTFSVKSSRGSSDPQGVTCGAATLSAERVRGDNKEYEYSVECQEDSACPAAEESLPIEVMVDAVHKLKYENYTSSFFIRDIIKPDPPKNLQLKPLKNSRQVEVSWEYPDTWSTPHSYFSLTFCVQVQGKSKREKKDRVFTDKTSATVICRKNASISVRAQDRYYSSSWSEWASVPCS

B1: lipocalin mutein SEQ ID NO: 10 (designed binder)
chain: QDSTSDLIPAPPLSKVPLQQNFQDNQFHGKWYVVGLAGNTILREDKDPDKMEATIYELKEDKSYNVTSVDFIMKKCWYFITTFVPGSQPGEFTLGHIKSMPGMTSFLVRVVSTNYNQHAMVFFKYVYQNREFFEITLYGRTKELTSELKENFIRFSKSLGLPENHIVFPVPIDQCIDG
notes: Human NGAL (lipocalin 2) mutein specific for IL-23p19
B2: lipocalin mutein SEQ ID NO: 9 (designed binder)
chain: QDSTSDLIPAPPLSKVPLQQNFQDNQFHGKWYVVGMAGNLMLREDKDPTKMSATIYELKEDKSYNVTWVDFRFKKCKYQIGTFVPGSQPGEFTLGGIKSMPGMTSFLVRVVSTNYNQHAMVFFKYVYQNREYFEITLYGRTKELTSELKENFIRFSKSLGLPENHIVFPVPIDQCIDG
notes: as for B1

Columns and labels:
mouse IL-23 [1] = target: T1, mouse IL-23; assay: solution competition ELISA (FIG. 5A)
Procedure: (§1) In the following detailed experimental protocol, incubation and washing steps were performed as described above in the competition ELISA protocol. A 384-well plate suitable for fluorescence measurements (Greiner FLUOTRAC™ 600, black flat bottom, high-binding) was coated with 20 μl of Neutravidin at a concentration of 5 μg/ml in PBS over night at 4° C. After washing, the Neutravidin-coated wells were blocked with 100 μl PBS-T/BSA for 1h at room temperature.

human IL-23 [2] = target: T2, human IL-23; assay: Surface Plasmon Resonance, legend of FIG. 6C (rounded value of the measurement of the example)
Procedure: (§2) Residual activated groups were quenched with ethanolamine. The reference channels were treated with EDC/NHS following ethanolamine (blank immobilization).
(§3) The binding assay was carried out with a contact time of 300 s, dissociation time of 1200 s and applying a flow rate of 30 μL/min. All measurements were performed at 25° C. […] Prior to the protein measurements three startup cycles were performed for conditioning purposes. Data were evaluated with Biacore T200 Evaluation software (V 1.0). Double referencing was used. The 1:1 Binding model was used to fit the raw data.

human IL-23 [3] = target: T2, human IL-23; assay: competition ELISA (ECL): 0.01 nM biotinylated hIL-23 pre-incubated with varied mutein, free hIL-23 captured on coated soluble hIL-23R (competitor)
Procedure: All incubation steps were performed with shaking 300 rpm, and the plate was washed after each incubation step with 80 μl PBS/0.05% Tween 20 for five times using a Biotek ELx405 select CW washer. […] After washing, the receptor-coated wells were blocked with 60 μl PBS-T/BSA for 1 h at room temperature.
After washing, 60 μl MSD Read Buffer T (2×) was added to each well and the plate was read within 15 min.

human IL-23 [4] = target: T2, human IL-23; assay: SPR (Biacore T200), IL-23 amine-coupled to CM5 chip, mutein in solution, 25 C, 1:1 binding model
Procedure: as §2, §3

human IL-12p40 [5] = target: T3, human IL-12p40; assay: solution competition ELISA, 1 nM SEQ ID NO: 10, plate with biotinylated hIL-23
Procedure: as §1

human IL-23 [6] = target: T2, human IL-23; assay: cell-based or functional assay
human IL-23 [7] = target: T2, human IL-23; assay: SPR (Biacore T200), hIL-23 immobilized on CM5 chip, mutein injected, fit 1:1 Binding
Procedure: as §2, §3

mouse IL-23 [8] = target: T1, mouse IL-23; assay: solution competition ELISA (FIG. 5B)
Procedure: as §1

human IL-12p40 [9] = target: T3, human IL-12p40; assay: solution competition ELISA, 10 nM SEQ ID NO: 9, plate with biotinylated hIL-23
Procedure: as §1

human IL-23 [10] = target: T2, human IL-23; assay: Surface Plasmon Resonance, legend of FIG. 6B (rounded value of the measurement of the example)
Procedure: as §2, §3

Binder	binding result (mouse IL-23 [1])	Kd (human IL-23 [2]) [nM]	IC50 (human IL-23 [3]) [nM]	Kd (human IL-23 [4]) [nM]	koff (human IL-23 [4]) [s⁻¹]	kon (human IL-23 [4]) [M⁻¹ s⁻¹]	binding result (human IL-12p40 [5])	EC50 [nM] AVERAGE, hIL-23-induced proliferation of Ba/F3 cells expressing hIL-23R and hIL-12Rβ1 (human IL-23 [6]) [nM]	EC50 [nM] Exp 1, hIL-23-induced proliferation of Ba/F3 cells expressing hIL-23R and hIL-12Rβ1 (human IL-23 [6]) [nM]	EC50 [nM] Exp 2, hIL-23-induced proliferation of Ba/F3 cells expressing hIL-23R and hIL-12Rβ1 (human IL-23 [6]) [nM]	EC50 [nM] Exp 3, hIL-23-induced proliferation of Ba/F3 cells expressing hIL-23R and hIL-12Rβ1 (human IL-23 [6]) [nM]	EC50 [nM] Exp 4, hIL-23-induced proliferation of Ba/F3 cells expressing hIL-23R and hIL-12Rβ1 (human IL-23 [6]) [nM]	koff (human IL-23 [7]) [s⁻¹]	kon (human IL-23 [7]) [M⁻¹ s⁻¹]	binding result (mouse IL-23 [8])	binding result (human IL-12p40 [9])	Kd (human IL-23 [10]) [nM]
B1	binds	11	1.9	11.5	0.00048	42000	no binding (tested: ligand up to 1000 nM)	332	515	199	316	296	0.000598	36300	–	–	–
B2	–	–	119	135	0.00063	4700	–	–	–	–	–	–	0.00063	4650	binds	no binding (tested: ligand up to 1000 nM)	135
